We go through one protein from publication PMC4770091, “Structural hot spots for the solubility of globular proteins” (Nature Communications, 2016).

This series concerns the molecule itself. Description: SEC; lysate of transfected HeLa cells (RIPA buffer) on Superdex S200 HR10/30 in hypotonic buffer (20 mM HEPES, 10 mM KCl, 1 mM MgCl2, 1 mM EDTA, 1 mM EGTA, 1 mM DTT, pH 7.5); fractions precipitated with trichloroacetic acid and blotted with anti-myc; molecular weight markers as standard. (SEC sorts molecules by how far they enter the pores of the column.)

B1: human α-galactosidase (α-Gal A), wild type (enzyme, UniProt P06280 32-429, looked up)
chain: LDNGLARTPTMGWLHWERFMCNLDCQEEPDSCISEKLFMEMAELMVSEGWKDAGYEYLCIDDCWMAPQRDSEGRLQADPQRFPHGIRQLANYVHSKGLKLGIYADVGNKTCAGFPGSFGYYDIDAQTFADWGVDLLKFDGCYCDSLENLADGYKHMSLALNRTGRSIVYSCEWPLYMWPFQKPNYTEIRQYCNHWRNFADIDDSWKSIKSILDWTSFNQERIVDVAGPGGWNDPDMLVIGNFGLSWNQQVTQMALWAIMAAPLFMSNDLRHISPQAKALLQDKDVIAINQDPLGKQGYQLRQGDNFEVWERPLSGLAWAVAMINRQEIGGPRSYTIAVASLGKGVACNPACFITQLLPVKRKLGFYEWTSRLRSHINPTGTVLLQLENTMQMSLKDLL
notes: human α-galactosidase A, full-length cDNA NM_000169 cloned in pcDNA4/TO/myc-His; The vector pcDNA4/TO/myc-His may also add a His tag after the Myc tag; also called WT α-Gal; Agal; source: HeLa, transiently transfected, in lysate (RIPA buffer); not shown: Myc, C-terminal, kept
Usually stoichiometry N stands for a count of units in the complex or per binding partner. For the protein B1, the “stoichiometry N” value was found to be 2.
